A protein production outcome set (Wang et al. 2014)

Assay: label from the status in PepcDB records

MISILRRGLLVLLAALPLLANAASTPSAHDLVQDTTTRLLADLAANKEKYKQSPNDFYNALNSIVGPVVDADGISRSIMTVKYSRKATPEQMVRFQENFKRSLMQFYGNALLEYNNQGITVSPAKDESGTRTSVDMQVKGNNGAIYPVSYTLEKINDEWKVRNVIINGINIGKLFRDQFADAMQRNGNNLDKTIDGWAGEVAKAKEVTEDAAQKAAQLEHHHHHH
protein production: not failed

MRLYERSSCLLQPPDYSLMNDSTDAQDVSQARVWLWAARPKTLGAAVAPVLVGTGMALEAGAWHLLSALLALAGAVLIQVGVNYHNDYADYVQGADTQERVGPLRVTQAGLVAPQTMRRATILVFGLAVMAGLYLIARGGWPILAVGVASIGAAIWYTAGRYSLAALGLADVFVFVFFGPVAVGGTYYVQALSLPTEVLLAGGGPGLLSIGILLVNNVRDVAEDRRAGKRTLVVRFGRRFGVAAYGACLVGALLLAGLLAAGLFGTTPHPWAALPLGLLPLAIGPIRRLSETTDPEKLNPLLGATGRILVLWALLFAVGWNL
protein production: failed

FATTDDVILLWRQLSVDEIKRAEALLETVSDTLRLEASKVGKNLDEMILETPYFATVLKSVTVDIVARTLMTATQGEPMSQESQSALGYTWSGTYLVPGGGLFIKDSELKRLGLKKQRYGGI
protein production: failed

MNSLPIADLLVSAVIAACIVLSAMRGVIAEAGSMAAWVVSFFFAKLFAASFADLAFASFQPRLFALALSFISLFVIACLIQKMLRSLLTSAVSAVGLGFANRILGGVFGALKGVLIVTLLVMLASKTDLPDTEEWRQSYTLPFFVSLSEAVLNHSGGTAETPEDD
protein production: failed

SAQEKMELDLELPPGTGGSPAEGGGSGGGGGLRRSNSAPLIHGLSDTSPVFQAEAPSARRNSTTFPSRHGLLLPASPVRMHSSRLHQIKQEEGMDLINRETVHEREVQTAMQISHSWEESFSLSDNDVEKSASPKRIDFIPVSPAPSPTRGIGKQCFSPSLQSFVSSNGLPPSPIPSPTTRFTTRRSQSPINCIRPSVLGPLKRKCEMETEYQPKRFFQGITNMLSSDVAQLSDPGVCVSSDTLDGNSSSAGSSCNSPAKVSTTTDSPVSPAQAASPFIPLDELSSK
protein production: not failed

MRDLDREETYLVDRTGLALELRDLVGTGPVPGEAYPGPHAALGYGEGQFAALLSGLPDWGEEGTLFLLEGGYDLGEAAGMALLAETGRARVVRVGFRPGVEVHIPPSPLAPYRYLRFLLLATGREEVLRSVDEALLEERRRLGPEVPVEENPAKFLAYTLLERLPLFYSPLFRPLEGAVQTLFARVAKSLSLTPPPSALEFFLVGLEARHEQGDPLAAVLLGPGEEAALAKEILESRVDALAEVPATGANRLAQVMALWYRMAWTAYYLALLYGVDPGDHGLLERLREVT
protein production: not failed

MRSFILRARSAPTDSQRLLDEIGGKCHTEILAHCMMNSLFTAQSHREDVVIHLVLESTRDYSRTITVEANEISDVGGFHEAALIALLVKALDASVGMGKEQTRVVQPGLTVRTISFEALLGELAEHHSLYMMDKKGDSIRDIKIGPNPCFILTDHIPMPKKSGNSMKRLGVEKISLGPKMLFASQCVTLIHNEIDHQEA
protein production: not failed

MAELAANDIDSALRWLERAIDHDPEYSSAYAALGDIYQRTNDPVEADYCLRMALRCSPDSSEILHKLARNCVTLGNRSEALALLREAKDRHSGSVDFLSQLALIYDDLDETDLAICTWEEVIALNPLDASAHNNLGLQWHYGKGDVDKALDCFMRALQLNPCLTEARFNLYQAKADAGKVDEALAGFESMLAEPFREEVMFHRSIMLLKNRRFGEGWREYHLRWRYRGTQSRSFPFPNWDGQPCTGKTLLVYGEQGLGDEIMFASCLRDLHEKTGAKIVLECNTRLESLFRRSFPGITVIGRSSAQTSADGLASGATIDFQTAIGDLPGMFRAEEAAFPNHRGYLVADPKRVTFWKDRLAALGEGPKIGISWRGGQGKTRREARSIPLQEWHPILAAEGRHFVSLQYTDCRQELQALEEQHGIVIHHWQEAIDDYDETAALVMALDKVITVCTSIVHLTGALGRPAWVLVPRVPEWRYLASGETMPWYPSVRLFRQPRAGDWAPVLRDIAWKLGTVARRVDHDLG
protein production: failed

MQNTTHDNVILELTVRNHPGVMTHVCGLFARRAFNVEGILCLPIQDSDKSHIWLLVNDDQRLEQMISQIDKLEDVVKVQRNQSDPTMFNKIAVFFQ
protein production: failed

MAELENPSVMSKLIAFLSSLLERVAESNDLTRRVATQSQRVSVFHGLSRPTITIQSYLERIFKYANCSPSCFVVAYVYLDRFTHRQPSLPINSFNVHRLLITSVMVAAKFLDDLYYNNAYYAKVGGISTKEMNFLELDFLFGLGFELNVTPNTFNAYFSYLQKEMTLLQPLSLVVVPSSRSLITFNDDEASHQKQQQQQLAV
protein production: failed

MPLKRLGHRVLGLVLAAMLLYGGLAPPVRNFFALPWQQRLPAAAPISLPWELPPGLARQVEVKVNSGDWSRATTGDFPRWLQLQLKLFGFIPLKNITIQLVQPVDVSPGGQAIGVFLKTEGVQVVGQAAIVDERGNKVYLARQAGLETGDAIIAIDGQKVTSDQEVANLINAAGQANRQARITVKREGHLLTLNIHPRYCQETGRYRIGVYVRDSTAGVGTLTFYDQNKGVFGALGHVVTGSDGQTAMDISGGRIVAAAIQGIHQGYRGQPGEKLGVFLENGQFSGTIQKNTIVGIFGTITGKLPGNKEIPVALADTVHPGPAEILTVIEGEKVESFQVEIERVMPHQRASGKGLVLRITDPRLLAVTGGIIQGMSGSPIIQDGQLAGAVTHVFINDPTRGYGVLAEWMLQETELVPKDKARGATVETPGSFLFVVFCVG
protein production: failed

MTTEAPIWPAELFEDLDRNGPIPLYFQVAQRLEDGIRSGVLPPGARLENEISVAKHLNVSRPTVRRAIQEVVDKGLLVRRRGVGTQVVQSHVTRPVELTSFFNDLKNANLDPKTRVLEHRLLAASSAIAEKLGVSAGDEVLLIRRLRSTGDIPVAILENYLPPAFNDVSLDELEKGGLYDALRSRGVVLKIANQKIGARRAVGEESTLLDIEDGGPLLTVERVALDNSGQVIELGSHCYRPDMYNFETTLVAR
protein production: not failed

MRNIAVILAGGSGQRLGENIPKQFLKIAGKKVIEHTITVFQNHSLIDEIVVVVHPDYIRDVEDISLRNSFNKLKKILLGGKERYHSSLAAINAYDEEVNLLFHDSVRPLVNERIINDCIRALLTYNAVDVAIPTTDTIIQVDDNNEIVKIPSRILLRNGQTPQAFKRSVIKAAYEKALLDPLFKTTDDCGVVLKYLPDESIYVVNGEQFNMKLTYKEDIFLLDKLFQLRSIRNQPTLLEKSEMEELQGKVVVVFGGTYGIGQDICEICREYKTSLYVYSRSTGVDVSNSQSVRRVLSEIFDKEGRIDWIVNTAGILDKQPLANMSYEAVHQSIDVNYLGNIIVAKESFFYLKESKGSLLFFTSSSYTRGRALYSLYSSSKAAIVNFVQALSEEWFEYGIRVNCINPERTKTPMRIQNFGNEPEDTLLEPKVVAIVSVNTLLSEMTGEVVDVKRLEHHHHHH
protein production: failed

MVPAAMRGLNLALVDIGAGTSDIAITGQGTISGYAMVPSAGDEITEALASALILDFNTAERVKRQLSTRENLTFTDVVGQRHTLAAAELMEIIKPAVTELARQVATQIILLNGKPPQAVLLIGGGSLTPGLAAALAGQLEISPERVALEHHHHHH
protein production: failed

MYAGRRDPSHVGIVMVGSPATATLILNDKVVVDLEGETLRLENGDAIALRPQAFAVLRHLVQNANRLVSKAELLEAVWGGAAVTDDSLVQCIHEIRRALGDERYAVLATVSRRGYRLSLERSDESALGGPSIAVLPFATMSGGEPNDYFADGLVEDIITNLSKIPGLFVIARNSSFGFRGEKADLRTIAAELRVRYLLQGSLRQSGGRLRIYAQLVDGASATHVWADRFEGAATDVFDLQDRLTEQIVGSIEPSVRRAEIERAHRKRPESLDAYDLYLRALPHAHANTPAQTDKALQLLARSIELQPDYVAAHGYAAWCYEQRYLRNGLDPADKAAALSHADIALGINSDDPQAMSIGAFVRANLTRDYDAAVEVLDRALAWNNNSTLAFGFSALVSAHSERHQRAVEHAHKALRLSPLDDPLSYHPYCALALTHLFAGAFADAARYAALAVRANPGFSIPYAYLAASHVGLGNVEAAHSAARRLIEVAPNFSVGGYVRTNLFQPYLMDALAAALRKAGLPE
protein production: failed

MFNIADGGFTELHTLWLNEEKAAVPGREYEIWHRRHDYWLLAGIVTHGYGRWQDIQNDIRFAIINEPFKMDVGKGNFLEIKNKFLARRFKLLEQALVIEEQLRRAAYLNLAQDPSHPAMSLNARFAEVECLAESHQHLSKESLAGNKPANAVLHKVLNQLEELLSDMKSDVSRLPATLARIPPVAQRLQMSERSILSRLA
protein production: failed

MIIKFTVVICTYNGAKRLPKVLDELQNQIDTEAISWEILVVDNNSTDSTKQVVQQYQNTCFKPGQLRYSFEPEQGLAIARQHAVTAARGELIGFLDDDNIPSLTWVASAYLFAQNHPCAGAYGSRIQGEFEVPPPDDFKRIAALLALTERGSKKLLYEPKKKVLPPGAGLVVRKQAWLENVPKRCFLQGRVCEPYLPGEDLEALLHIQQAGWDIWYNPEMQITHQIPHWRLKKDYLVDLCRGIGLSRYHTRMLSVKPWQAPVLFWLYIFNDVRKLILHLYKYRGRVKSDLIAACELELFIGSLLSPPYIWKAYIKKYFRKQRPVSFSSSVRCADYTQN
protein production: failed

VSRDENSWLIDGATPLEEVTRVLDIAYFPDEENYETISGFMMYMLRKIPKKTDSVVYGKYKFEVIDTENFKIDQILVSLVKEQE
protein production: not failed

DELEAAAESLEDGSLILEGSTDIRHVSLLLNRDLVDESEEYSTLSGYILFHLGRLPENGQKMHADGYIFEVVTMDGHKIEKVHIVADP
protein production: failed

GMQGYFFNTRRDLFKDIRVREALSYAFDFEWSNKNLFFGQYTRTKSFFDNSELASFGTPSPQEREWLTPFKEQLPEGIFDQPFTLPTTKGDGNIRPQLKRAQQLLKEAGYEIKNKKLIHTTTGQPFVFELLLLSPAMERVALPFKRNLATLGIEMKIRTIDLTQYINRLREFDYDMIVGVIGQSLSPGNEQRYYWHSSSKDERGSKNYAGIDHPAVDRLVEMVVNAKDRRELVDYTRALDRVLLWNHYVIPHFHNR
protein production: not failed

MTILENIRGPRDLKALSEAELGELSDEIRDFLVHAVARTGGHLGPNLGVVELTVALHRVFESPDDRILWDTGHQSYVHKLLTGRQDFSKLRSKGGLSGYPSREESAHDVIENSHASTVLGWADGLAKARQVQGERSHVVAVIGDGALTGGMAWEALNNIAAARDRPLIIVVNDNERSYAPTIGGLANHLATLRTTDGYERALAWGKDVLQRTPVVGHTVYEALHGAKKGFKDAFAPQGLFEDLGLKYLGPIDGHDIGAVESALRRAKRFHGPVLVHCLTEKGRGYEPALRDEEDHFHTVGVMDPLTCEPLGPAGGPSWTSVFGEEIVRIGEERADVVAITAAMLHPVGLAPFAERFPDRVWDVGIAEQHAAVSAAGLATGGLHPVVAVYATFLNRAFDQLLMDVALHRCGVTFVLDRAGVTGVDGASHNGMWDMSVLQVVPGLRIAAPRDADQLRTQLREAVAVDDAPTLLRFPKESVGPAVPAVDRIGGLDVLHTADRSEVLLVAVGVMAPVCLGAAELLEARGIGCTVVDPRWVKPVDPALAPLAARHRLVAVVEDNSRAAGVGSAVALALGDAEVDVPVRRFGIPEQFLAHAKRAEVLADIGLTPVDVAGRIAASLALAEPAGDRAGGPAVEQPGDGRMSGDGRIVMPAQGEN
protein production: failed

MNIAFTFKNFEPSEHLKKYARRRFEKLARFVGKSANLELQVALSLDKFRQKAEVQLVGDSINIAAVEQSEDMYATIDLVLDKLEAQLKKHVSRVKERRRSARTNANIDVFTYHTEGEGEDRAIVGTDQFVPKPLHVDEAAMQLDALDYEFLVFLNAESERINVIYRRRNGDFGLIDPVV
protein production: failed

MSVWLLQMKTNAIITDITKSIVKMDRILVYRHTNPDPDAIGAQFGLVALLKAAYPEKLVVAMAPVPGHLAWIDTTDEQLVTPQATDLVIAVDCANHERLAGELPTGAFVIKIDHHPNHDPYGQLNWVDETYSSCSEMIYELAQAGCFTVTAAVATKLYAGIIGDTVRFSTPETSTRTLKIASALAATDIDIATISHHEMDLT
protein production: failed
